The results in this text go back to the supplement of paper PMC12042874.

± gives the uncertainty stated by the source.

The nature of this data set: amyloid nucleation score (Sup35N fusion, yeast selection) (log enrichment); library NNK2; higher = more nucleation; inactive = no reads after selection. The method, boiled down:
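Plasmid inserts were Illumina-sequenced at input and output from psi-negative yeast expressing Sup35N fused to peptides of 20 random codons. The yeast were induced with 100 μM copper sulfate for 24 hours and grown 7 days at 30°C on medium lacking adenine and uracil, and sequences with under 100 input reads were excluded. Nucleation score is the DiMSum log enrichment of output over input reads, centred on the mode score of non-aggregating sequences.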
EYSLCRMG had an amyloid nucleation score of -0.155 ± 0.28.

Turning to LQRYRFSNACI, the amyloid nucleation score result is “inactive”.

EERVCLSPSDSSSRMLGQKV showed an amyloid nucleation score of -0.078 ± 0.35.

On to IFGFGMFKWKTFLTLSVFV, for which the amyloid nucleation score was -0.223 ± 0.76.

As to ALCQYISSSYMWYSVMCELI, the amyloid nucleation score entry was “inactive”.

In turn, SNYVY showed an amyloid nucleation score of -0.161 ± 1.1.

The substance CSIMFIG came in with an amyloid nucleation score of 0.858 ± 0.47.

Take VMRVT: the amyloid nucleation score turned out to be 5.22 ± 0.081.

Consider QAFVNFNIIYDV, for which the amyloid nucleation score was 5.959 ± 0.053.

On to SIRSKGDILSCSRTTFC, for which the amyloid nucleation score came out at 5.32 ± 0.071.

Substance KKRQCGMVGLNLVGQYLHSF gave an amyloid nucleation score of -1.3 ± 0.62.

As to MFSFCRGSANSRLAQKDIVN, the amyloid nucleation score was 0.023 ± 0.3.

IYLVSNLMGYKCFLSNHLAR gave an amyloid nucleation score of 0.151 ± 0.32.

On to RPFKYCVRRLANRA, for which the amyloid nucleation score was 0.135 ± 0.65.

Substance HSAYSWFLKSSNRRSWANSS gave an amyloid nucleation score of -0.666 ± 0.79.

In the case of KICYWLRRASVYMLVVLGRP, the amyloid nucleation score is -0.343 ± 0.49.

On to IASISERLYCFAGPTIRCNR, for which the amyloid nucleation score stood at 0.338 ± 0.43.

In the case of RWNGSKLRY, the amyloid nucleation score turned out to be 0.009 ± 0.76.

Regarding HSFLSGIKWLSSDLGDSVGY, the amyloid nucleation score is -1.29 ± 0.62.

Turning to YFWSRLRFVCRDRSGKNYCS, the amyloid nucleation score was -0.138 ± 0.76.

The substance AARFELYSNWS gave an amyloid nucleation score of 2.05 ± 0.21.

For the substance VRMMCLQGATTGATNSPSNR, the amyloid nucleation score was -0.526 ± 0.37.

On to QSGYVGNGVWVVTVVSKLMC, for which the amyloid nucleation score is 6.796 ± 0.037.

Consider IDHINF, for which the amyloid nucleation score is -0.524 ± 0.64.

GKSYPPHLHHDNNKAYRVLP: the amyloid nucleation score was -0.178 ± 1.1.

Regarding VYWWVANV, the amyloid nucleation score was determined as 1.99 ± 0.26.

Regarding MRWLYFPLF, the amyloid nucleation score is -0.801 ± 0.56.

Substance NIDSVLRNYSCDHRKYHSLE had an amyloid nucleation score of -0.305 ± 1.

DVGCAMPSYTRGWYVYSNLM: the amyloid nucleation score was 0.58 ± 0.42.

For the substance VMIVFLDAFFGNLRANVVWY, the amyloid nucleation score was -0.846 ± 0.49.

SENGRLLLGLFGKRWDVNDV yielded an amyloid nucleation score of -0.097 ± 0.79.

Turning to FYGFL, the amyloid nucleation score entry is “inactive”.

With THCKGIYLSCMTSDFVHSYY, the amyloid nucleation score result is “inactive”.

The substance TWRIYLTQRAVTSKMYLRAS had an amyloid nucleation score of 4.74 ± 0.07.

In the case of GFPLWSAGNCFALNAGRDAG, the amyloid nucleation score is 0.777 ± 0.19.

Substance HFVRVSFGCCLVTLSMRVDR displayed an amyloid nucleation score of 0.669 ± 0.26.

Take ARKKALGGNNLEVVLFLFSC: the amyloid nucleation score worked out at 4.93 ± 0.098.

With NCRRMFGYNHCSHLCPLRVW, the amyloid nucleation score is -0.653 ± 1.1.

Regarding RIKRETHAAFNVYSIYAVRY, the amyloid nucleation score was 0.183 ± 0.3.

For the substance ACVNYYNSEATIVVRKGRMG, the amyloid nucleation score is 4.19 ± 0.071.

Turning to LSMVDCGASDGLEQVFGLAG, the amyloid nucleation score was found to be 0.14 ± 0.33.

LIGIYLPWSL returned an amyloid nucleation score of -0.735 ± 0.45.

FPSVLSFWKTMSVCGDHPYP returned an amyloid nucleation score of -0.686 ± 0.3.

In turn, NRSAYLGRMVSI displayed an amyloid nucleation score of 0.164 ± 0.44.

In turn, YDVRMSKMFAYTLSSEC gave an amyloid nucleation score of 0.203 ± 0.53.

TLFNMMIYSL returned an amyloid nucleation score of 1.09 ± 0.54.

Consider HSCSYRLLSMYTRLRTLVSG, for which the amyloid nucleation score was -0.828 ± 0.64.

LVGMSANNTVKYSK showed an amyloid nucleation score of 0.144 ± 0.36.

On to GARMSRSSGFSVQYNFSGQG, for which the amyloid nucleation score was 4.11 ± 0.093.

In the case of NIVGHAHRLFNRMRCLRLYQ, the amyloid nucleation score was -0.439 ± 0.32.

As to ILAGSAFCLLCCVKAGWSDE, the amyloid nucleation score was 6.41 ± 0.086.

Substance PFMCRLIYSELNDYIIELDE yielded an amyloid nucleation score of -0.081 ± 0.5.

Turning to SMDFNNDC, the amyloid nucleation score result is “inactive”.

YVLSCDPLVRYQGLEDRQQS yielded an amyloid nucleation score of 0.31 ± 0.62.

Substance RGMSAKSTERYVLGIGRAVS showed an amyloid nucleation score of 4.18 ± 0.11.

Consider MACFECFTGISACNLNMRG, for which the amyloid nucleation score turned out to be 8.574 ± 0.026.

CLNWRSLSS displayed an amyloid nucleation score of 3.34 ± 0.067.
